# Data taken from PMC2600746.
# B1: GAS (dsDNA)
# DNA 1: GCGTCTTTTCCGGGAAATACAT
# DNA 2: ATGTATTTCCCGGAAAAGACGC
# Target: GST-FoxK[414-654] (Drosophila melanogaster, UniProt A0JL24 414-654)
# Assay: competition EMSA
binder,measurement,value
B1,binding result,no binding
